Two molecules from patent US20240301071A1 (Alector, published 2024) can be followed below.

In experiment [1] the target is T1, soluble human FcgR3A V158 (human, UniProt P08637 17-208).
T1 construct: also called CD16A V158
As to the kind of experiment: BLI (Octet RED96), antibody captured by anti-human Fab-CH1, soluble human FcR. Here is the method:
(§1) FcR affinity measurements for anti-SIRPA antibody Fc variants were obtained using bio-layer interferometry (BLI) on a Pall ForteBio Octet RED96 instrument. […] Single cycle kinetics were performed with 100 nM of soluble human FcRs flowed over captured antibody to record traces (300 s association time, 300 s dissociation time). Data analysis was performed using ForteBio Data Analysis Software, version 9.0. Standard kinetic buffer (PBS, 0.1% BSA, 0.02% Tween-20, pH 7.2) was used for the assay and for preparing reagents.
For orientation: BLI is a label-free optical method that tracks binding on a fibre tip over time.

Experiment [2] has as its target T2, soluble human FcgR3A F158 (human, UniProt P08637 17-208).
T2 construct: also called CD16A F158
The experiment is described as above. On the procedure:
as §1

Experiment [3] addresses T3, human SIRPA on human macrophages (primary monocyte-derived macrophages; U937 line) (human, UniProt P78324 31-504). In words: cell-based or functional assay.
Experiment [4] concerns the target T3, human SIRPA on human macrophages …. In words: cell-based or functional assay. The source holds these as a separate data set.
Experiment [5] deals with T4, soluble human FcgR2B (human, UniProt P31994 46-217).
T4 construct: also called CD32B
T4 sequence (looked up): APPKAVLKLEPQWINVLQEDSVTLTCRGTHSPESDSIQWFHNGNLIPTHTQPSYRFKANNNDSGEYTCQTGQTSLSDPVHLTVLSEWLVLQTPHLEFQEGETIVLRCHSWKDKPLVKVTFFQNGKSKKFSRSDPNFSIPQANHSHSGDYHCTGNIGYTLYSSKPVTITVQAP
As to the kind of experiment: BLI (Octet RED96), antibody captured by anti-human Fab-CH1, 100 nM soluble human FcR. On the procedure: as §1

For experiment [6], the target named is T5, soluble human FcgR2A R131 (human, UniProt P12318 36-218).
T5 construct: also called CD32A-R131
T5 sequence (looked up): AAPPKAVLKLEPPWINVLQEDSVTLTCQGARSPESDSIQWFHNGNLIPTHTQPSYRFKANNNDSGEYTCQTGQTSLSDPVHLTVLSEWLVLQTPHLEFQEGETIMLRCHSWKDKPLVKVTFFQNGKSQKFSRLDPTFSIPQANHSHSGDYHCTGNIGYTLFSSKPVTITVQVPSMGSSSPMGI
The description is as above. On the procedure:
as §1

Experiment [7] addresses T6, soluble human FcgR1 (human, UniProt P12314 16-288).
T6 construct: also called FcγRI; CD64
Described as above. Here is the method:
as §1

The target in experiment [8] is T7, soluble human FcgR2A H131 (human, UniProt P12318 36-218).
T7 construct: also called CD32A-H131
T7 sequence (looked up): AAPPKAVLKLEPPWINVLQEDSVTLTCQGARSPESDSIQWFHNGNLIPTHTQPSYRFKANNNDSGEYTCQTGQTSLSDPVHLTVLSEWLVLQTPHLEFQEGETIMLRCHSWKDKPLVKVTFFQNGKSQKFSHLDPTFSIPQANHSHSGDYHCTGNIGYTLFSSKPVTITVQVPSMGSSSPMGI
The description is as above. On the procedure:
as §1

Experiment [9] deals with T4, soluble human FcgR2B. In words: BLI (Octet RED96), antibody captured by anti-human Fab-CH1, soluble human FcR. On the procedure: as §1
Experiment [10] deals with T5, soluble human FcgR2A R131. Described as above. On the procedure:
as §1

In experiment [11] the target is T7, soluble human FcgR2A H131. The experiment is described as above. On the procedure:
as §1

T3 sequence (P78324 31-370): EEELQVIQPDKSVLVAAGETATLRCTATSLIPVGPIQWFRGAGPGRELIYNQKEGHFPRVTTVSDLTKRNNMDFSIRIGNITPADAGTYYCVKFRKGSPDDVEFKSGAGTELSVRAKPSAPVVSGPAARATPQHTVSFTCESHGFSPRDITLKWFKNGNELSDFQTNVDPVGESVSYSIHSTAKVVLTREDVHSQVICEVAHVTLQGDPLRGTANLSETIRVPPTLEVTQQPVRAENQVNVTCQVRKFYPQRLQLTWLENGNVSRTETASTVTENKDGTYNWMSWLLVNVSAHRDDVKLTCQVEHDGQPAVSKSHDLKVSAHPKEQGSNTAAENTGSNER
T1 sequence (P08637 17-208 F176V limits assumed): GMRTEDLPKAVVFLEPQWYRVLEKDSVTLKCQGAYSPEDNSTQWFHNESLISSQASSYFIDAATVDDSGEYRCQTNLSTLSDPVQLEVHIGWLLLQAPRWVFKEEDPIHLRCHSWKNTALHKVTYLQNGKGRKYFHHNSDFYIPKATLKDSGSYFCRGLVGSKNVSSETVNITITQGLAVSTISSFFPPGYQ
T6 sequence (P12314 16-288 limits assumed): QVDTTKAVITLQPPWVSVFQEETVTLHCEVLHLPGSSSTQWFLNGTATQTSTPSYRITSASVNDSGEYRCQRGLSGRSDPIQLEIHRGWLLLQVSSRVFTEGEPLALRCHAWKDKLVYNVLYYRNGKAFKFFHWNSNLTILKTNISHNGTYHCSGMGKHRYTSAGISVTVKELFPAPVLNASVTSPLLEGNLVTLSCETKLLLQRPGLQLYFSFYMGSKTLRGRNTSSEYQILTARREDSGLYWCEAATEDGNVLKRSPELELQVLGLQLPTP
T2 sequence (P08637 17-208 limits assumed): as the sequence (P08637 17-208 F176V limits assumed) above, with V160F counted along it

B1: 3F9-22 hIgG1 NSLF (antibody)
heavy: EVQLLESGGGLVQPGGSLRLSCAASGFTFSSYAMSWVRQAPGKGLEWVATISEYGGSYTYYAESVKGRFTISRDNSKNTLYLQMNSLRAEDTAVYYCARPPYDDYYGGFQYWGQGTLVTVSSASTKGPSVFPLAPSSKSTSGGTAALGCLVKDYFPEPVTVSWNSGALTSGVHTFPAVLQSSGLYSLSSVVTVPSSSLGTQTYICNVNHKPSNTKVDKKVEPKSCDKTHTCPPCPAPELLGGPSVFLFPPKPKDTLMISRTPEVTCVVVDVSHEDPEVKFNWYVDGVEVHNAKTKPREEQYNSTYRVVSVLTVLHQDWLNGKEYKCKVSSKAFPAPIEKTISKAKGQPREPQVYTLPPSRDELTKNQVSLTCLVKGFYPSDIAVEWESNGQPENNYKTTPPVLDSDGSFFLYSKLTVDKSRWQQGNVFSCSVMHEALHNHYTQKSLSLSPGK
light: DIQLTQSPSSLSASVGDRVTITCRASKSVSSGGYSYMHWYQQKPGKAPKLLIYLASNLESGVPSRFSGSGSGTDFTLTISSVQPEDFATYYCQHNRELPVTFGQGTKLEIKRTVAAPSVFIFPPSDEQLKSGTASVVCLLNNFYPREAKVQWKVDNALQSGNSQESVTEQDSKDSTYSLSSTLTLSKADYEKHKVYACEVTHQGLSSPVTKSFNRGEC
notes: also called 3F9-22 NSLF; 3F9-22NSLF
For the molecule B1, the binding result in experiment [1] was “no binding (tested: 100 nM)”; in experiment [2], “no binding (tested: 100 nM)”; in experiment [5], “binds”; in experiment [6], “binds”; in experiment [7] it was “binds”; in experiment [8] it was “binds”. Besides, in experiment [3], the “IC50 (nM), SIRPA downregulation on human monocyte-derived macrophages” value worked out at 0.0451 nM. For the same molecule, in experiment [3], the “Max % DR, SIRPA, human monocyte-derived macrophages” value came to 74.6%. Also, the “EC50 (nM), phagocytosis of A375 cells by primary human macrophages” value in [4] came to 0.458 nM. In addition, the “Max, fold increase in phagocytosis over baseline activity” value in experiment [4] was 1.77 fold.

B2: 3F9-22 hIgG1 LALAPS (antibody)
heavy: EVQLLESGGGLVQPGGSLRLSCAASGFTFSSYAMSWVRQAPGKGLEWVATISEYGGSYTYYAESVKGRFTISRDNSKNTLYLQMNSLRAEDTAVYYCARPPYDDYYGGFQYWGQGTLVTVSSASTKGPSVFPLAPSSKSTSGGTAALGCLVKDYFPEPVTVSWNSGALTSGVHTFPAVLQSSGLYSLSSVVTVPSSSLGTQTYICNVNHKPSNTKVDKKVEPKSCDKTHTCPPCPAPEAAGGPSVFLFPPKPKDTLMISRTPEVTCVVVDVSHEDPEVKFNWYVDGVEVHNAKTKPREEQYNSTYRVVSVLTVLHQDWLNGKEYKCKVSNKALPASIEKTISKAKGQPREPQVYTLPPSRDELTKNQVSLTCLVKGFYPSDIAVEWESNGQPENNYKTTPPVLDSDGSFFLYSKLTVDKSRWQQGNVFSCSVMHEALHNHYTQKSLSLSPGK
light: DIQLTQSPSSLSASVGDRVTITCRASKSVSSGGYSYMHWYQQKPGKAPKLLIYLASNLESGVPSRFSGSGSGTDFTLTISSVQPEDFATYYCQHNRELPVTFGQGTKLEIKRTVAAPSVFIFPPSDEQLKSGTASVVCLLNNFYPREAKVQWKVDNALQSGNSQESVTEQDSKDSTYSLSSTLTLSKADYEKHKVYACEVTHQGLSSPVTKSFNRGEC
notes: also called 3F9-22 LALAPS
B2: the binding result in experiment [9] is “no binding (tested: 100 nM)”; in experiment [1] it was “no binding (tested: 100 nM)”; in experiment [2], “no binding (tested: 100 nM)”; in experiment [10] it was “no binding (tested: 100 nM)”; in experiment [11], “no binding (tested: 100 nM)”; in experiment [7], “binds”. Further, the “IC50 (nM), SIRPA downregulation on human monocyte-derived macrophages” value in experiment [3] amounted to 0.0447 nM. The “Max % DR, SIRPA, human monocyte-derived macrophages” value in experiment [3] stood at 41.6%.
